Laboratory results taken from publication PMC12060649, “Tuning the Dimensionality of Protein–Peptide Coassemblies to Build 2D Conductive Nanomaterials” (ACS Nano, 2025).

B1: 6-repeat peptide (FE)6, E6 (peptide)
peptide: FEFEFEFEFEFE
notes: designed amphiphilic peptide, six repeats of the dipeptide Phe-Glu; Forms supramolecular fibres; also called (FE)n with n = 6
B2: E9 peptide (peptide)
peptide: EEFEFEFEFEFEFEE
notes: designed amphiphilic peptide, E6 with additional glutamic acids at both termini
B3: E7 peptide (peptide)
peptide: EFEFEFEFEFEFE
notes: designed amphiphilic peptide, E6 with one more glutamic acid at the N-terminus; In the coassemblies it stood as pre-formed, sonicated self-assembled fibres; also called E7 fibers; E7 self-assembled fibers

Molecular target: the molecule itself
Assay: AFM + other: TEM; peptides in water at pH ≈ 5, sonicated 10 min, annealed at 80° for 30 min; AFM on mica at 1 mM, dry tapping mode; TEM at 10 μM, negative staining with uranyl acetate

Binding result, binds:
B1
B2
B3
